Patent US20250154240A1, “ANTI-HUMAN CXCL1 ANTIBODY” (CHIOME BIOSCIENCE INC., priority 2022, published 2025)
One block for each molecule: values may come before it.

What was measured:
CXCR2-expressing cells = assay: In vivo migration inhibitory activity test on CXCR2-expressing cells, OCUM-12 orthotopic transplantation (prevention model); set-up: species or system mouse; conditions: for Migration of CXCR2-expressing cells (CXCR2-positive cells per unit area in gastric tumor sections): 20 mg/kg intraperitoneally twice a week, compared to PBS or mouse IgG1
Source text: (§1) The stomachs after measurement of the tumor size in [3-1] above were excised and fixed overnight at room temperature with a 10% neutral buffered formalin solution (Wako Pure Chemical Industries, Ltd., Japan), followed by replacement with PBS. Then, paraffin embedding and section preparation were outsourced to Applied Medical Research Laboratory, Japan. The prepared gastric tumor sections were immunohistologically stained with an anti-CXCR2 antibody to evaluate in vivo CXCR2 cell migration inhibitory activity. The sections were deparaffinized and rehydrated, and then treated to inactivate endogenous peroxidase. After antigen activation treatment, the sections were blocked with PBS containing 2% skimmed milk and 0.1% Tween-20, and reacted overnight at 4° C. with an anti-CXCR2 antibody (Biorbyt) as a primary antibody, which had been diluted to 0.3 μg/mL with the blocking solution. After washing with PBS containing 0.1% Tween-20, the sections were reacted at room temperature for 1 hour with an HRP-labeled goat anti-rabbit IgG antibody (Abcam) as a secondary antibody. After washing with a washing solution, a simple stain DAB solution (5052, Nichirei Corporation, Japan) was used to cause color development. After images of the stained tissues were captured with an Explore (Olympus Corporation, Japan), imaging software CellSens (Olympus Corporation, Japan) was used to calculate CXCR2-positive cells per unit area.
Navarixin is among small molecular compounds that act on CXCR2 and inhibit CXCL1-CXCR2 signaling. […] Then, using a model with OCUM-12 orthotopic transplantation, the migration inhibition of CXCR2-expressing cells and antitumor activity were evaluated in vivo for Navarixin. As a vehicle, ultrapure water containing 20% 2-hydroxypropyl-β-cyclodextrin (FUJIFILM Wako Pure Chemical Corporation, Japan) was used. Navarixin (MedChemExpress) was dissolved in ultrapure water containing 20% 2-hydroxypropyl-β-cyclodextrin, and orally administered at a dose of 100 mg/kg/day in a schedule of once a day for 5 consecutive days, followed by a 2-day withdrawal.
as §1, with “after measurement were excised” for “after measurement of the tumor size in [3-1] above were excised”, “and 0.1% Tween-20 (hereinafter referred to as the blocking solution), and reacted” for “and 0.1% Tween-20, and reacted”, “been diluted 1667-fold with the” for “been diluted to 0.3 μg/mL with the”, “to calculate positive cells per” for “to calculate CXCR2-positive cells per”
The dose-response relationship between antibody dose and in vivo antitumor activity or CXCR2 migration inhibitory activity was evaluated in a xenograft prevention model with OCUM-12 orthotopic transplantation. A prevention model is a model designed to start antibody administration from the day following tumor transplantation. […]

CyCXCL1 = CyCXCL1 binding activity ELISA; set-up: species or system cynomolgus monkey; conditions: absorbance to CyCXCL1 relative to absorbance to HuCXCL1
Experimental: Binding activity to cynomolgus monkey CXCL1 (CyCXCL1) was evaluated.
The same procedure as shown in [1-1] above was repeated to prepare a CyCXCL1 protein (antigen), except that the amino acid sequence of a HuCXCL1 protein was replaced with the amino acid sequence of a CyCXCL1 protein (Uniprot registration number: QUEAC3; SEQ ID NO: 82).
The evaluation of binding activity to CyCXCL1 was accomplished by ELISA assay. Absorbance was calculated in the same manner as shown in [2-1] above to evaluate antigen-binding activity, except that the protein immobilized on the plates was changed from a HuCXCL1 protein to a CyCXCL1 protein. An antibody whose absorbance to CyCXCL1 was 80% or more of its absorbance to HuCXCL1 was determined to have cross-reactivity and indicated with “o” while an antibody whose absorbance to CyCXCL1 was less than 80% of its absorbance to HuCXCL1 was indicated with “x” in Table A above.

CyCXCL1, sequence (as listed by the source): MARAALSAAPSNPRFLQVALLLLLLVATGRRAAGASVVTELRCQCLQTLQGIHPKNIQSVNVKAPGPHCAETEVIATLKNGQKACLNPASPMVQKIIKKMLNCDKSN

B3: 1A-7H10: mouse monoclonal anti-HuCXCL1 antibody clone; VH SEQ ID NO: 1, VL SEQ ID NO: 5 (antibody, listed as Mus musculus, V domains shown)
VH: QVQLKESGPVLVAPSQSLSITCSVSGFSSTTYGVHWVRQPPGQGLEWLGVIWAGGSTNYNSALMSRLSISKDNSKSQVFLKMNSLQTDDTAMYYCATQYHYPFAYWGQGTLVTVSA
VL: NIVMTQSPKSMSMSVGERVTLSCKASENVGIYVSWYQQKPEQSPKLMIYGASNRNTGVPDRFTGSGSATDFTLTISSVQAEDLADYYCGQSYSYPLTFGAGTKLELK
Migration of CXCR2-expressing cells (CXCR2-positive cells per unit area in gastric tumor sections) (CXCR2-expressing cells; 3 weeks): significantly suppress the migration of CXCR2-expressing cells
Binding activity to CyCXCL1 ELISA (CyCXCL1): ∘

B4: Hu5A-5E11: humanized antibody VH1/VL1; VH SEQ ID NO: 76, VL SEQ ID NO: 78 (antibody, V domains shown)
VH: QVQLVQSGAEVKKPGSSVKVSCKASGYAFSDYWMNWVRQAPGQGLEWIGQIYPGSGDTNYNAKFKGKGTITADKSTSTAYMELSSLRSEDTAVYYCARERDYDVAMDYWGQGTTVTVSS
VL: DIQMTQSPSSLSASVGDRVTITCKASQDINKYIAWFQQKPGKAPKLVIHYTSILQPGVPSRFSGSGSGTDYTFTISSLQPEDIATYYCLQYDNLPWTFGGGTKVEIK
Migration of CXCR2-expressing cells (positive cells per unit area) (CXCR2-expressing cells; 400 μg/head intraperitoneally twice a week, 3 weeks, compared to hIgG1 antibody): significantly suppress the migration of CXCR2-expressing cells
Dose at which the migration suppressive effect tended to reach a plateau (CXCR2-expressing cells; prevention model): ≥ 60 μg/head

Second part, led by results:

Binding activity to CyCXCL1 ELISA (CyCXCL1): ∘
B1: 5A-5E11: mouse monoclonal anti-HuCXCL1 antibody clone; VH SEQ ID NO: 17, VL SEQ ID NO: 21 (antibody, listed as Mus musculus, V domains shown)
VH: QVQLQQSGAELVRPGSSVKISCKASGYAFSDYWMNWVKQRPGQGLEWIGQIYPGDGDTNYNGKFKGKGTLTADKSSSTAYMQLNSLTSEDSAVYFCARERDYDVAMDYWGQGTSVTVSS
VL: DIQMTQSPSSLSASLGGKVTITCKASQDINKYIAWFQHKPGKGPRLVIHYTSILQPGIPSRFSGVGSGRDYSFSIRNLEPEDIATYYCLQYDNLPWTFGGGTKLEIK
Migration of CXCR2-expressing cells (CXCR2-positive cells per unit area in gastric tumor sections) (CXCR2-expressing cells; 3 weeks): significantly suppress the migration of CXCR2-expressing cells

Binding activity to CyCXCL1 ELISA (CyCXCL1): ∘
B2: 4A-2F7: mouse monoclonal anti-HuCXCL1 antibody clone; VH SEQ ID NO: 9, VL SEQ ID NO: 13 (antibody, listed as Mus musculus, V domains shown)
VH: QVTLKESGPGILKPSQTLSLTCSFSGFSLSTSGMGVDWIRQPSGKGLEWLAHIWWDDDKYYNPSLKSQLTISKDTSRNQVFLKITSVDTADTATYYCARSYGYDMDYYAMDYWGQGTSVTVSS
VL: DIQMTQSPSSLSASLGERVSLTCRASQEISGYLSWLQQKPDGTIKRLIYAASTLDSGVPKRFSGSRSGSDYSLTISSLESEDFADYYCLQYASYPPWTFGGGTKLEIK
Migration of CXCR2-expressing cells (CXCR2-positive cells per unit area in gastric tumor sections) (CXCR2-expressing cells; 3 weeks): significantly suppress the migration of CXCR2-expressing cells

Binding activity to CyCXCL1 ELISA (CyCXCL1): ∘
B5: 028-8-12: human antibody against CXCL1 from the human ADLib technique; VH SEQ ID NO: 25, VL SEQ ID NO: 29 (antibody, listed as Gallus gallus, V domains shown)
VH: EVQLLESGGGLVQPGGSLRLSCAASGFTFSELSMSWVRQAPGKGLEWVSAISGSGGSTYYADSVKGRFTISRDNSKNTLYLQMNSLRAEDTAVYYCAREGGRLEPYYYYYAMDVWGQGTPVTVSS
VL: DIQMTQSPSSLSASVGDRVTITCRASQSISDNLHWYQQKPGKAPKLLIYDASNLESGVPSRFSGSGSGTDFTLTINSLQPEDFATYYCQQYYSTPLTFGQGTKLEIK
Migration of CXCR2-expressing cells (CXCR2-positive cells per unit area in gastric tumor sections) (CXCR2-expressing cells; 3 weeks): significantly suppress the migration of CXCR2-expressing cells
